Assay results reported in patent publication CN104592390A (SHANGHAI ZHANGJIANG BIOTECHNOLOGY CO LTD; SHANGHAI HAISI …, dated 2015).

Target: T1, 乙型肝炎表面抗原(HBsAg) (Hepatitis B virus)
T1 chain: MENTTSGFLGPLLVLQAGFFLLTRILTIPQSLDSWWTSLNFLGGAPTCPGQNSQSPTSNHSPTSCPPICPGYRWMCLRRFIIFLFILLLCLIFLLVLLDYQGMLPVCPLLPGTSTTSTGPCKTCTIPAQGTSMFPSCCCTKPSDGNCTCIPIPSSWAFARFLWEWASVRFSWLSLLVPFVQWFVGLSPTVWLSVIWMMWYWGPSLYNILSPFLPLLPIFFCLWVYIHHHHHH
Experiment: ELISA affinity determination on HBsAg

B1: C4D2-BsAb (bispecific antibody, human IgG1, kappa)
VH: not shown
VL: DIVMTQSPLSLSVTPGEPASISCRSSQSLLHRSGNNYLDWYLQKPGHSPQLLIYVGSNRASGVPDRFSGSGSGTEYTLKISRVEAEDVGVYYCMQALQTPRTFGQGTKLEIKRTVAAPSVFIFPPELVMTQSPSSLSASVGDRVTITCRASQGIYNSIAWYQQKPGKAPKLLLYSTSTLLSGVPSRFSGSGSGTDYTLTITNLQPEDFATYYCQQYFVTPETFGQGTKVEIKRTVAAPSVFIFPPSDEQLKSGTASVVCLLNNFYPREAKVQWKVDNALQSGNSQESVTEQDSKDSTYSLSSTLTLSKADYEKHKVYACEVTHQGLSSPVTKSFNRGEC
notes: Dual-variable-domain format; also called 双特异性抗体C4D2-BsAb
- Kd: 3.88 nM
